Article PMC3981819, “Signaling Properties and Pharmacological Analysis of Two Sulfakinin Receptors from the Red Flour Beetle, Tribolium castaneum” (PLoS ONE, 2014)
Square brackets hold non-standard residues; d marks the D form. Ends that are not written are not given here. * marks the point of attachment. SO3H = sulfate on Tyr (sulfated tyrosine), O=S(=O)(O)*; sY = N[C@@H](Cc1ccc(OS(=O)(=O)O)cc1)C(=O)O; pGlu = O=C1CC[C@@H](C(=O)O)N1

B1: sulfated C-terminal fragment of T. castaneum SK comprising amino acids 5–13 (peptide)
peptide: FDDY(SO3H)GHMRF-NH2
modifications: N-terminus assumed
SMILES: CSCC[C@H](NC(=O)[C@H](Cc1c[nH]cn1)NC(=O)CNC(=O)[C@H](Cc1ccc(OS(=O)(=O)O)cc1)NC(=O)[C@H](CC(=O)O)NC(=O)[C@H](CC(=O)O)NC(=O)[C@@H](N)Cc1ccccc1)C(=O)N[C@@H](CCCNC(=N)N)C(=O)N[C@@H](Cc1ccccc1)C(N)=O
B2: sulfated SK from the migratory locust, Locusta migratoria (peptide)
peptide: [pGlu]LASDDY(SO3H)GHMRF-NH2
SMILES: CSCC[C@H](NC(=O)[C@H](Cc1c[nH]cn1)NC(=O)CNC(=O)[C@H](Cc1ccc(OS(=O)(=O)O)cc1)NC(=O)[C@H](CC(=O)O)NC(=O)[C@H](CC(=O)O)NC(=O)[C@H](CO)NC(=O)[C@H](C)NC(=O)[C@H](CC(C)C)NC(=O)[C@@H]1CCC(=O)N1)C(=O)N[C@@H](CCCNC(=N)N)C(=O)N[C@@H](Cc1ccccc1)C(N)=O
B3: 1569[φ2]wp-4 (peptide)
peptide: PVD[sY]DRPIMAF-NH2
modifications: N-terminus assumed
SMILES: CC[C@H](C)[C@H](NC(=O)[C@@H]1CCCN1C(=O)[C@H](CCCNC(=N)N)NC(=O)[C@H](CC(=O)O)NC(=O)[C@H](Cc1ccc(OS(=O)(=O)O)cc1)NC(=O)[C@H](CC(=O)O)NC(=O)[C@@H](NC(=O)[C@@H]1CCCN1)C(C)C)C(=O)N[C@@H](CCSC)C(=O)N[C@@H](C)C(=O)N[C@@H](Cc1ccccc1)C(N)=O
B4: 1678A[φ1]wp-4 (peptide)
peptide: D[sY]RPLQF-NH2
modifications: N-terminus assumed
SMILES: CC(C)C[C@H](NC(=O)[C@@H]1CCCN1C(=O)[C@H](CCCNC(=N)N)NC(=O)[C@H](Cc1ccc(OS(=O)(=O)O)cc1)NC(=O)[C@@H](N)CC(=O)O)C(=O)N[C@@H](CCC(N)=O)C(=O)N[C@@H](Cc1ccccc1)C(N)=O
B5: 1835[φ2]wp-4 (peptide)
peptide: SDD[sY]GHMRF-NH2
modifications: N-terminus assumed
SMILES: CSCC[C@H](NC(=O)[C@H](Cc1c[nH]cn1)NC(=O)CNC(=O)[C@H](Cc1ccc(OS(=O)(=O)O)cc1)NC(=O)[C@H](CC(=O)O)NC(=O)[C@H](CC(=O)O)NC(=O)[C@@H](N)CO)C(=O)N[C@@H](CCCNC(=N)N)C(=O)N[C@@H](Cc1ccccc1)C(N)=O
B6: 1678B[φ1]wp-6 (peptide)
peptide: DG[sY]RPLQF-NH2
modifications: N-terminus assumed
SMILES: CC(C)C[C@H](NC(=O)[C@@H]1CCCN1C(=O)[C@H](CCCNC(=N)N)NC(=O)[C@H](Cc1ccc(OS(=O)(=O)O)cc1)NC(=O)CNC(=O)[C@@H](N)CC(=O)O)C(=O)N[C@@H](CCC(N)=O)C(=O)N[C@@H](Cc1ccccc1)C(N)=O
B7: 1567[φ1]wp-5 (peptide)
peptide: SPVD[sY]DRPIMAF-NH2
modifications: N-terminus assumed
SMILES: CC[C@H](C)[C@H](NC(=O)[C@@H]1CCCN1C(=O)[C@H](CCCNC(=N)N)NC(=O)[C@H](CC(=O)O)NC(=O)[C@H](Cc1ccc(OS(=O)(=O)O)cc1)NC(=O)[C@H](CC(=O)O)NC(=O)[C@@H](NC(=O)[C@@H]1CCCN1C(=O)[C@@H](N)CO)C(C)C)C(=O)N[C@@H](CCSC)C(=O)N[C@@H](C)C(=O)N[C@@H](Cc1ccccc1)C(N)=O
B8: 1679[φ1]wp-4 (peptide)
peptide: [pGlu]PS[sY]DRDIMSF-NH2
SMILES: CC[C@H](C)[C@H](NC(=O)[C@H](CC(=O)O)NC(=O)[C@H](CCCNC(=N)N)NC(=O)[C@H](CC(=O)O)NC(=O)[C@H](Cc1ccc(OS(=O)(=O)O)cc1)NC(=O)[C@H](CO)NC(=O)[C@@H]1CCCN1C(=O)[C@@H]1CCC(=O)N1)C(=O)N[C@@H](CCSC)C(=O)N[C@@H](CO)C(=O)N[C@@H](Cc1ccccc1)C(N)=O

target: Tribolium castaneum sulfakinin receptor 1 (T. castaneum)

Going from B1 to B2, the EC50 of aequorin bioluminescence (Ca2+) in CHO-WTA11 cells (Gα16) transfected with the receptor, peptide 1 fM to 1 μM rises from 0.0995 nM to 16.8 nM (170-fold).

target: Tribolium castaneum sulfakinin receptor 2 (T. castaneum)

Going from B1 to B2, the EC50 of aequorin bioluminescence (Ca2+) in CHO-WTA11 cells (Gα16) transfected with the receptor, peptide 1 fM to 1 μM rises from 0.524 nM to 776 nM (1500-fold).

target: Tribolium castaneum sulfakinin receptor 1 (T. castaneum); remark: another data set of the same source

B1 gave an aequorin bioluminescence in CHO-WTA11 cells transfected with the receptor, peptide at 1 μM, % of the response to 1 μM sTrica-SK(5–13) (this peptide is the 100% reference) of 100%.

Going from B3 to SPVDYDRPIMAF-NH2 [1432-2[φ]wp-6], the aequorin bioluminescence in CHO-WTA11 cells transfected with the receptor, peptide at 1 μM, % of the response to 1 μM sTrica-SK(5–13) rises from 6.2% to 16.4%.

Compared with HMRF-NH2 [2052[φ1]wp-3], B4 is lower in aequorin bioluminescence in CHO-WTA11 cells transfected with the receptor, peptide at 1 μM, % of the response to 1 μM sTrica-SK(5–13): 43.4% for the first, 40.8% for the second.

First: YGHMRF-NH2 (ends and bridges not checked) [2011[φ1]wp-1]
Second: B5
The aequorin bioluminescence in CHO-WTA11 cells transfected with the receptor, peptide at 1 μM, % of the response to 1 μM sTrica-SK(5–13) of the first is lower: 26.3% for the first, 58.2% for the second.

Compared with B2, B6 is lower in aequorin bioluminescence in CHO-WTA11 cells transfected with the receptor, peptide at 1 μM, % of the response to 1 μM sTrica-SK(5–13): 75% for the first, 28.5% for the second.

First: B7
Second: GHMRF-NH2 [2053[φ1]wp-4]
The aequorin bioluminescence in CHO-WTA11 cells transfected with the receptor, peptide at 1 μM, % of the response to 1 μM sTrica-SK(5–13) of the first is higher: 23.6% for the first, 13.3% for the second.

Going from B8 to FDDYGHMR-NH2 (ends and bridges not checked) [2076[φ1]wp-2], the aequorin bioluminescence in CHO-WTA11 cells transfected with the receptor, peptide at 1 μM, % of the response to 1 μM sTrica-SK(5–13) rises from 16.5% to 25.8%.

target: Tribolium castaneum sulfakinin receptor 2 (T. castaneum); remark: another data set of the same source

B1 showed an aequorin bioluminescence in CHO-WTA11 cells transfected with the receptor, peptide at 1 μM, % of the response to 1 μM sTrica-SK(5–13) (this peptide is the 100% reference) of 100%.

Compared with B3, SPVDYDRPIMAF-NH2 [1432-2[φ]wp-6] is lower in aequorin bioluminescence in CHO-WTA11 cells transfected with the receptor, peptide at 1 μM, % of the response to 1 μM sTrica-SK(5–13): 13.4% for the first, 11.2% for the second.

Compared with HMRF-NH2 [2052[φ1]wp-3], B4 is lower in aequorin bioluminescence in CHO-WTA11 cells transfected with the receptor, peptide at 1 μM, % of the response to 1 μM sTrica-SK(5–13): 33.4% for the first, 32.6% for the second.

Compared with YGHMRF-NH2 (ends and bridges not checked) [2011[φ1]wp-1], B5 is higher in aequorin bioluminescence in CHO-WTA11 cells transfected with the receptor, peptide at 1 μM, % of the response to 1 μM sTrica-SK(5–13): 21.2% for the first, 41.4% for the second.

Compared with B2, B6 is lower in aequorin bioluminescence in CHO-WTA11 cells transfected with the receptor, peptide at 1 μM, % of the response to 1 μM sTrica-SK(5–13): 79.9% for the first, 19.9% for the second.

First: B7
Second: GHMRF-NH2 [2053[φ1]wp-4]
The aequorin bioluminescence in CHO-WTA11 cells transfected with the receptor, peptide at 1 μM, % of the response to 1 μM sTrica-SK(5–13) of the first is lower: 33.7% for the first, 44.6% for the second.

Compared with B8, FDDYGHMR-NH2 (ends and bridges not checked) [2076[φ1]wp-2] is higher in aequorin bioluminescence in CHO-WTA11 cells transfected with the receptor, peptide at 1 μM, % of the response to 1 μM sTrica-SK(5–13): 16.6% for the first, 19.7% for the second.

target: Tribolium castaneum sulfakinin receptor 1 (T. castaneum); remark: another data set of the same source

B1 showed an EC50 of CRE-luciferase bioluminescence (cAMP) in HEK293T cells cotransfected with the receptor of 0.0049 nM.

target: Tribolium castaneum sulfakinin receptor 2 (T. castaneum); remark: another data set of the same source

In the case of B1, the EC50 of CRE-luciferase bioluminescence (cAMP) in HEK293T cells cotransfected with the receptor is reported as 1.4 nM.

target: Tribolium castaneum sulfakinin receptor 1 (T. castaneum); remark: another data set of the same source

With B1 the EC50 of aequorin bioluminescence (Ca2+) in CHO-PAM28 cells (no Gα16) transfected with the receptor was 0.0585 nM.

target: Tribolium castaneum sulfakinin receptor 2 (T. castaneum); remark: another data set of the same source

B1 was tested, and the EC50 of aequorin bioluminescence (Ca2+) in CHO-PAM28 cells (no Gα16) transfected with the receptor was 1.61 nM.
